The format of data set [1] is physicochemical. Here is the method:
Measurement of chemical stability of DHA5. The dehydro residues of nisin and subtilin have vinyl protons that give well-separated resonances in the proton NMR spectrum, Liu and Hansen, Appl. Environ. Microbiol., 56, p. 251 (1990). The areas of the vinyl proton peaks in the NMR spectrum were measured, and chemical modification of DHA5 over time was taken as the decrease in peak area of the DHA5 vinyl protons in subtilin and in E4I-subtilin as compared to zero time. Proton NMR spectra were obtained using a Bruker AMX-500 NMR spectrometer. The spectra were obtained at a constant temperature of 295K, using selective solvent suppression.
Chemical and biological stability of natural subtilin. The natural producer of subtilin is B. subtilis ATCC 6633. […] These dissolved samples were incubated at room temperature, and from time to time, the NMR spectrum of the one sample and the biological activity of the other sample against Bacillus cereus spores were determined. […]
E4I-subtilin has enhanced chemical and biological stability. The central design strategy in the construction of a stable mutant of subtilin was based on the idea that the chemical and biological stabilities of subtilin are determined by the chemical reactivity of DHA5; and that DHA5 in natural subtilin is unstable because the Glu4 carboxyl participates in its chemical modification (FIG. 7). […]

The test system of data set [2] is Bacillus cereus T spores. The data set can be described thus: Spore outgrowth liquid assay (amount required to inhibit spore outgrowth during 3 hour assay). Format: cell-based. The procedure: (§1) Measurement of biological stability of subtilin. Biological activity against Bacillus cereus spores was measured by a liquid assay in which various concentrations of subtilin were added to a suspension of Bacillus cereus T spores in 15 ml polypropylene tubes, and inhibitory effects were evaluated by phase-contrast microscopy as described previously (Morris et al, J. Biol. Chem., 259, 13590-13594 (1984) and Appl. Environ. Microbiol., 42, 958-962 (1981)). The amount of subtilin required to inhibit spore outgrowth during the 3 hour assay period was used as a measure of antimicrobial activity. Relative amounts of subtilin were estimated from the area of the subtilin peak (measured at 254 nm) that eluted from the C-18 analytical HPLC column during purification. The amounts were converted to molar quantities of subtilin by comparing the peak area of subtilin with that of a known molar quantity of a nisin standard (21). For this purpose, the extinction coefficients of nisin and subtilin at 254 nm were assumed to be the same, in that absorbance at this wavelength is mainly due to the same three dehydro residues present in both peptides. The biological activity against Bacillus cereus spores of the E4I-subtilinmutant was determined in the same way as for natural subtilin.
E4I-subtilin has enhanced specific activity. […]

Data set [3] deals with Bacillus cereus spores. In words: Biological stability: activity against Bacillus cereus spores over time of incubation. Format: cell-based. Particulars: 50 mM NaPi pH 6.8, room temperature, compared with DHA5 disappearance. The procedure:
as §1
Chemical and biological stability of natural subtilin. The natural producer of subtilin is B. subtilis ATCC 6633. […]

The conditions of data set [4]: reported; cited from earlier work.

Regarding `C=C1NC(=O)CC[C@@H](C(=O)O)NC(=O)[C@H](NC(=O)[C@H](CCCCN)NC(=O)[C@@H](N)Cc2c[nH]c3ccccc23)CSC[C@@H](C(=O)N[C@@H]2C(=O)N3CCC[C@H]3C(=O)NCC(=O)N[C@H](C(=O)N[C@H](C(=O)N[C@@H]3C(=O)NCC(=O)N[C@@H](C)C(=O)N[C@@H](CC(C)C)C(=O)N[C@@H](CCC(N)=O)C(=O)N/C(=C/C)C(=O)N[C@H](C(=O)N[C@@H](Cc4ccccc4)C(=O)N[C@@H](CC(C)C)C(=O)N[C@@H](CCC(N)=O)C(=O)N[C@@H]4C(=O)N[C@@H](CC(C)C)C(=O)N[C@H]5C(=O)N[C@@H](CSC4C)C(=O)NC(=O)[C@H](CC(N)=O)N[C@H](C(=O)N[C@@H](CCCCN)C(=O)N[C@H](C(=O)NC(=C)C(=O)N[C@@H](CCCCN)C(=O)O)[C@@H](C)CC)CSC5C)CSC3C)C(C)C)CSC2C)N[C@@H](CC(C)C)C(=O)NC1=O` (stereo partly drawn) [subtilin], the “t1/2 of chemical modification (disappearance) of DHA5, first-order” value in data set [1] (aqueous solution (D2O) pH 6.8, room temperature, NMR at 295K) was 19 h. In data set [2], the “concentration showing inhibition of spore outgrowth” value is “about 1 μg per ml” and the “concentration showing inhibition of spore outgrowth (molar)” value is reported as around 280 nM. For the same compound, the “loss of biological activity against Bacillus cereus spores during incubation” value in data set [3] is reported as “dropped at approximately this same rate”. For the same compound, the light sensitivity result in data set [4] is listed as “light-sensitive”.

Take `C=C(NC(=O)[C@@H](NC(=O)[C@H](CCCCN)NC(=O)[C@@H]1CSC(C)[C@H]2NC(=O)[C@H](CC(C)C)NC(=O)[C@H](NC(=O)[C@H](CCC(N)=O)NC(=O)[C@H](CC(C)C)NC(=O)[C@H](Cc3ccccc3)NC(=O)[C@@H]3CSC(C)[C@@H](NC(=O)[C@@H](NC(=O)[C@@H]4CSC(C)[C@@H](NC(=O)[C@@H]5CSC[C@@H](NC(=O)[C@H](CCCCN)NC(=O)[C@@H](N)Cc6c[nH]c7ccccc67)C(=O)N[C@@H]([C@@H](C)CC)C(=O)NC(=C)C(=O)N[C@@H](CC(C)C)C(=O)N5)C(=O)N5CCC[C@H]5C(=O)NCC(=O)N4)C(C)C)C(=O)NCC(=O)N[C@@H](C)C(=O)N[C@@H](CC(C)C)C(=O)N[C@@H](CCC(N)=O)C(=O)NC(=CC)C(=O)N3)C(C)SC[C@H](NC2=O)C(=O)N[C@@H](CC(N)=O)C(=O)N1)[C@@H](C)CC)C(=O)N[C@@H](CCCCN)C(=O)O` (stereo partly drawn) [E4I-subtilin]: the “increase in chemical and biological stability relative to natural subtilin” value in data set [1] was 57 fold.

The values are drawn from US5885811A, “Leader sequence inducing a post-translational modification of polypeptides in bacteria gene therefor and subtilin variant of enhanced stability and activity” (University of Maryland, priority 1995, dated 1999).
